For this experiment, the target named is T1, Canine IL-4 with C-terminal Avi-HIS tag (canine, biotin label when loaded on SA biosensors (Example 4); site not stated).
T1 construct: also called cIL-4; biotinylated avitag-cIL-4
T1 chain: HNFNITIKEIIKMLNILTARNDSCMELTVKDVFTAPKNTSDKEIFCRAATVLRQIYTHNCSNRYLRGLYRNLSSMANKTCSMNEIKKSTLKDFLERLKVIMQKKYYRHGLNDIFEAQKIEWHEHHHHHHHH
Put plainly: BLI (OCTET HTX); biotin-cIL-4 on SA biosensors, scFv in solution; 1:1 model. As for the experimental part:
The in vitro binding of anti-canine IL-4 scFv and IL-13 scFv to canine IL-4 and canine IL-13, respectively, was determined by OCTET HTX using SA biosensors and Data Acquisition 12.0 software. First, biotin-labeled antigen (cIL-4 or cIL-13) was loaded onto the pre-rehydrated SA biosensors for 60 seconds (60s) at a concentration of 5 μg/mL. Second, the biosensors were placed into the OCTET Kinetics Buffer (PBS+0.02% Tween20, 0.1% BSA) for the blocking phase for 120s. Third, for the association phase, cIL-4 or cIL-13 antigen loaded biosensors were placed into 2-fold serial dilutions from 500 nM down to 7.8 nM of anti-cIL-4 or anti-cIL-13 scFvs, respectively, in OCTET Kinetics Buffer for 60s. The last well was buffer alone and that sensor was used for reference sensor subtraction. Finally, the biosensors were placed into OCTET Kinetics Buffer for the dissociation phase for 300s. The analysis was performed using Data Analysis 12.0 software and curves were fitted using a 1:1 binding model.

B1: IL4 P4-1 G3 scFv (scFv)
scFv: QSVLNQLPSLSMNMGETATFTCEGDNIGHKYVNWYQQKPGQAPVLTIYEDNKRPSGIPERFSGSNSGNTATLTISGARAEDEADYYCESEVSTGIVFGGGTHLTVLGGGSSRSSSSGGGGSGGGGEVQLVESGGDLVKPGGSLRLSCVASGFTFSSYDMDWVRQAPGKGLEWLSEISTNGDRTHYADAVKGRFAISRDNAKNTVYLQMNSLRAEDTAIYYCVRDGYEYLAFDYWGQGTLVTVSSASTTAPSVTSGQAGQ
notes: scFv purified from E. coli periplasm on Ni-NTA
As usually defined, the Kd is a measure of binding affinity in units of concentration. The low end stands for a tighter complex, the high end for a looser complex. One may read the koff as the first-order rate constant of dissociation. In general, kon refers to the rate constant with which the complex forms. A high value points to faster complex formation. As for B1, the affinity, expressed as Kd, was 3.94 nM; the koff turned out to be 0.00247 s⁻¹; the kon stood at 594000 M⁻¹ s⁻¹.

B2: IL4 P3-1 A6 scFv (scFv)
scFv: QPVLTQPPSVSAALGQRVTISCNTNIGSPYDVQWYQQLPGKSPKTIIYGNSNRPSGVPVRFSGSKSGSTATLTIAGIQAEDEADYYCQSYDDNVDGYVFGSGTQLTVLGGGSSRSSSSGGGGSGGGGEVPLVESGGDLVKPGGSLRLSCVASGFTFHNYDLSWIRQLPGGGLQWVADIDKSGLTFYADAVKGRFTISRDNAKNTLYLQMNSLRAEDTAVYYCATWPLGSWYTETFEYWGQGTLVTVSSASTTAPSVTSGQAGQ
notes: as for B1
The molecule B2 came in with a Kd of 1.24 nM, a koff of 0.000272 s⁻¹ and a kon of 219000 M⁻¹ s⁻¹.

B3: IL4 P3-1 C4 5LC scFv (scFv)
scFv: QAVLNQPASVSGSLGQRVTISCSGSTNNIGVVGASWYQQFPGKAPKLLVYSDGDRPSGVPDRFSGSNSGYSDTLTITGLQAEDEADYYCQSFDTTLNAYVFGSGTQLTVLGGGSSRSSSSGGGGSGGGGEVPLVESGGDLVKPGGSLRISCVASGITFNNDDMGWVRQAPGKGLQWLAEISSSGTSTYYADAVKGRFTISRDNAKNTVYLQMNSLKAEDTGVYYCVGEDGYMALGFWGQGTLVTVSSASTTAPSVTSGQAGQ
B3 came in with a Kd of 4.13 nM, a koff of 0.000547 s⁻¹ and an on-rate (kon) of 132000 M⁻¹ s⁻¹.

B4: IL4 P3-1 B9 scFv (scFv)
scFv: QAVLTQPASVSAALGQRVTISCTGTATNVGGGYDVQWYQQFPGRPPKTIIYGNYNRPSGVPDRFSASTSGTTATLTITGIQVADEADYYCQSFDTTFNGHVFGAGTQLTILGGGSSRSSSSGGGGSGGGGELQLVELGGDLVKPGGSLRLSCVASGFTFSSYGMSWVRQSPGKGLQWVADISSSGSTYYADAVKGRFTISRDNAKSTLYLQMNSLRAEDTAVYYCAKAGYGSYYDFGMDYWGHGTSVFVSSESPSPPNLTSGQAGQ
notes: as for B1
B4: binding was put at a Kd of 4.5 nM, the off-rate constant (koff) came out at 0.00108 s⁻¹ and the kon turned out to be 241000 M⁻¹ s⁻¹.

B5: IL4 P4A-2 G11 scFv (scFv)
scFv: DIVMTQTPLSLSVSPGEPASISCKASQSLLYSDGNTYLYWFRQKPGQSPQRLISLVSNRDAGVPDRFSGSGSGTDFTLRISRVEADDAGVYYCGQGIQDPITFGKGTHLEIKGGSSRSSSSGGGGSGGGGEVPLVESGGDLVKPGGSLRLSCVASGFPFRSYGMNWVRQSPGGGLQWVAGILFDGSATAYADAVRGRFTISRDNAKNTLYLQMNSLRAEDTAVYYCASDDGSYIEAYNWFYYWGQGTLVTVSSASTTAPSVTSGQAGQ
notes: as for B1
The molecule B5 displayed an equilibrium dissociation constant (Kd) of 8.5 nM, a koff of 0.00117 s⁻¹ and a kon of 137000 M⁻¹ s⁻¹.

B6: IL4 P3-1 B10 scFv (scFv)
scFv: QSVLTQPTSVSAALGQRVTISCTGSNANIGSVYDVQWYQQLPGKSPKTIIYGNTHRPSGVPVRFSGSKSGSTATLTITGIQAEDEADYYCQSYDATLHYVFGSGTQLTVLGGGSSRSSSSGGGGSGGGGEVQLVESGGDLVKPGGSLRLSCVASGFTFSNYDMSWVRQAPGKGLQWVSTISYDGNNTYYSDAVKGRFTISRDNARNTLYLQMNSLRAEDTAVYYCAKEFDIPWDNFDYWGQGTLVTVSSASTTAPSVTSGQAGQ
notes: as for B1
Molecule B6 gave a Kd of 4.57 nM, a koff of 0.00522 s⁻¹ and a kon of 1.14e+06 M⁻¹ s⁻¹.

B7: IL4 P3-1 D7 scFv (scFv)
scFv: QSMLTQPASVSGSLGQRVAISCSGSTNNIGIFGATWYQHLPGKAPKFLLYSDGNRPSGVPDRFSGSDSGNSVTLMITALQAEDEADYYCQSFDTTLGAYVFGSGTQLTILGGGSSRSSSSGGGGSGGGGEVQLVQSGGDLVKPGGSLRLSCVASGFAFNGYDMDWVRLAPGKGLQWLSEISSSGSPTYYADAVEGRFTISRDNAKNTLYLQMDSLRAEDTAVYYCARAGEYTYGYEGYYFDYWGQGTLVTVSSASTTAPSVTSGQAGQ
notes: as for B1
In turn, B7 displayed a Kd of 17.5 nM, a koff of 0.00729 s⁻¹ and a kon of 391000 M⁻¹ s⁻¹.

B8: IL4 P4-1 A10 scFv (scFv)
scFv: QSVLNQLPSVSGSLGQKVTIRCSGNTDNIGMVGAAWYRQVPGEAPKLLLYSDGNRPSGVPDRFSGSDSGRSATLTITGLQPEDEADYYCQSLDPTVPGNYLFGSGTQLTILGGGSSRSSSSGGGGSGGGGEVQLVESGGDLVKPGGSLRLSCVASGFTFSDYDMTWVRQAPGKGLQWVADINNGGSSTTYADAVKGRFTISRDNAKNTLYLQMNSLRAEDTAMYYCAKEGDNTWLSFDSWGQGTLVTVSSESPSPPNLTSGQAGQ
notes: as for B1
Molecule B8 gave an equilibrium dissociation constant (Kd) of 9.92 nM, a koff of 0.011 s⁻¹ and a kon of 954000 M⁻¹ s⁻¹.

B9: IL4 P4A-1 A4 scFv (scFv)
scFv: SYVLSQPPSVSVTPSETAHITCGGNNIGSKYVQWIRQSAGQAPVTIIYGNTNRPTGIPERFSGANSGNTATLTISGVLAEDEADYYCQVGDTDTTVFGGGTHLTVLGGGSSRSSSSGGGGSGGGGEVQLVESGGDLVKPGGSLRLSCVASGFNFSRYSMSWVRQAPEKGLQLVAAVNSGGSRTWYADAVQGRFTVSRDNAKNTLFLEMSSLKLEDTAMYYCAKDLWSTTIAEYDYWGQGTLVTVSSASTTAPSVTSGQAGQ
notes: as for B1
Take B9: binding was put at a Kd of 52 nM, the off-rate constant (koff) was determined as 0.0373 s⁻¹ and the kon came to 704000 M⁻¹ s⁻¹.

B10: IL4 P4A-1 F10 scFv (scFv)
scFv: QTVVTQEPSLSVSPGGTVTLTCGLSSGSVSTGNYPGWYQQTQGRAPRSIIYDTNSRPSGVPDRFSGSISGNKAVLTITGAQPEDEADYYCSLYTGIAYTDVVFGGGTHLTVLGGGSSRSSSSGGGGSGGGGEVQLVQSGGDLVKPAGSLRLSCVASGFTFNSYAMSWVRQAPGKGLQWVAGINSGGSTTTYADAVKGRFTISRDNAKNTLYLQMNSLRAEDTAVYYCAKDQNSYYPSDTFEYWGQGTLVTVSSESPSPPNLTSGQAGQ
notes: as for B1
In the case of B10, the Kd came out at 12.7 nM, the koff came out at 0.00396 s⁻¹ and the kon came out at 311000 M⁻¹ s⁻¹.

B11: IL4 P4A-2 D11 scFv (scFv)
scFv: QAVLTQPPSVSAALGQRVTISCSGSTDNVGTVGASWYQHLPGRAPKLLVYIVGDRPSGVPDRFSGSKSGTSATLTITGLQAEDEADYYCSSWDDSLRGIVFGGGTHLTVLGGGSSRSSSSGGGGSGGGGEEQLVEFGGDLVKPGESLRLSCVASGFTFNKYDMSWVRQAPGKGLQWVATVADDESFAYYTDSVKGRFTISRDNAKNTLYLQMNSLRAEDTAMYYCVGKTGSYWDIDFDLWGPGTLVTISSASTTAPSVTSGQAGQ
notes: as for B1
For B11, the Kd turned out to be 4.38 nM, the koff is 0.00775 s⁻¹ and the kon was 1.52e+06 M⁻¹ s⁻¹.

B12: IL4 P4A-1 E10 scFv (scFv)
scFv: QSVLNQPPSVSAALGQRVTVSCTGTDTNIGSGYDVQWYQQVPGKSPTPIIYGNTNRPSGVPERFSGSKSGNTATLTITGIQAEDEADYYCQSFDDNVDGYVFGSGTQLTILGGGSSRSSSSGGGGSGGGGEVPLVESGGDLVKPGGSLRLSCVASGFTFSDYHMSWVRQAPGKGLQWVADISSSGSTYYADAVKGRFTISRDNAKNTLYLQMNSLRAEDTAVYYCARQWGEFDYWGQGTLVTVSSESPSPPNLTSGQAGQ
notes: as for B1
Regarding B12, the Kd came to 10.3 nM, the koff was 0.00173 s⁻¹ and the on-rate (kon) was 194000 M⁻¹ s⁻¹.

These data come from patent US20260234236A1 (INTERVET, published 2026).
